# Experimental data: US20130039857
# Columns and labels:
# [1] = target: LKB1 (endogenous, in skeletal muscle and 3T3L1 adipocyte extracts) (UniProt Q9WTK7)
# [2] = tested on: 141 overlapping peptides (12-15 residues in length) corresponding to the LKB1 sequence
# [3] = tested on: His-LKB1 fusion protein (purified)
substance,measurement,setting,value
Fyn expressed from pcDNA3.1-Fyn-V5,tyrosine phosphorylation of LKB1 immunoprecipitates from 3T3L1 adipocytes (PY100 immunoblot),[1],Immunoblotting of LKB1 immunoprecipitates with the PY100 phosphotyrosine antibody demonstrated Fyn-induced tyrosine phosphorylation of LKB1
recombinant His-FynT kinase (Calbiochem),in vitro phosphorylation of an overlapping peptide array (Phosphosite Detector),[2],"This analysis identified five tyrosines (Y60, Y156, Y166, Y261, and Y365) as potential LKB1 phosphorylation acceptor sites for the Fyn kinase"
same,tyrosine phosphorylation in an in vitro kinase reaction (PY100 phosphotyrosine immunoblot),[3],purified His-LKB1-tagged fusion protein was tyrosine phosphorylated by purified recombinant Fyn kinase in vitro
"Fyn-CA, constitutively active Fyn mutant (pcDNA3.1-Fyn-CA(Y527F)-V5)",tyrosine phosphorylation of endogenous LKB1 immunoprecipitated from transfected tibialis anterior muscle (PY100 immunoblot),[1],"In the absence of Fyn-CA, there was a relatively low level of LKB1 tyrosine phosphorylation that was significantly increased by the expression of Fyn-CA"
